Assays:
[1] = target: meditope-enabled Trastuzumab v2.0 (83E meditope enabled antibody trastuzumab); assay: SPR, antibody immobilized at 750 RU, 37 C, 1:1 fit
[2] = target: meditope-enabled Trastuzumab v2.0 (83E meditope enabled antibody trastuzumab); assay: SPR, antibody immobilized at 1500 RU, 37 C, 1:1 fit
[3] = target: meditope-enabled Trastuzumab v2.0 (83E meditope enabled antibody trastuzumab); assay: SPR, antibody immobilized at 150 RU, 37 C, 1:1 fit
[4] = target: meditope-enabled Trastuzumab v2.0 (83E meditope enabled antibody trastuzumab); assay: SPR, antibody immobilized at 1500 RU, 37 C

Kd [1]: 0.014 µM
koff [1]: 0.00014 s⁻¹
kon [1]: 10000 M⁻¹ s⁻¹
t1/2 [1]: 1.3 h
Kd [2]: 0.0082 µM
koff [2]: 8e-05 s⁻¹
kon [2]: 9800 M⁻¹ s⁻¹
t1/2 [2]: 2.4 h
Kd [3]: 0.0512 µM
koff [3]: 0.00045 s⁻¹
kon [3]: 8700 M⁻¹ s⁻¹
t1/2 [3]: 0.4 h
fold improvement of half-life against the monovalent meditope [4]: > 30 fold
half-life [4]: 2.42 h
B1: trivalent meditope (TVM) (protein)
chain: GGSAAPSSAPSPSAPCQFDLSTRRLSCGGASPAASPSAPSSPAPKAPSAAPSSAPSPSAPGGCQFDLSTRRLSCGGASPAASPSAPSSPAPKAPSAAPSSAPSPSAPGGCQFDLSTRRLSCGGSPSAPSSPSSPKLPETG

— patent US20230391887A1
